Data taken from article PMC9563126, “Identification of a flavonoid C-glycosyltransferase from fern species Stenoloma chusanum and the application in synthesizing flavonoid C-glycosides in Escherichia coli” (Microbial Cell Factories, 2022).
Positions count from the first letter of the chain named. Numbers in names are those of the source.

Assays:
[1] = substrate: O=C1CC(O)(c2ccc(O)cc2)Oc2cc(O)cc(O)c21; assay: HPLC glycosylation assay, Lineweaver-Burk; format: biochemical, Odontosoria chinensis; details: 1 mM UDP-glucose, 200 mM MES pH 6.5, 1 mM DTT, 30 °C, 15 min, acceptor varied
Excerpt: (§1) HPLC glycosylation assay, Lineweaver-Burk on ScCGT1

[2] = substrate: O=C(CCc1ccc(O)cc1)c1c(O)cc(O)cc1O; assay: HPLC glycosylation assay, Lineweaver-Burk; format: biochemical, Odontosoria chinensis; details: 1 mM UDP-glucose, 200 mM MES pH 6.5, 1 mM DTT, 30 °C, 15 min, acceptor varied
Excerpt: as §1

B1: ScCGT1 (Odontosoria chinensis) (protein)
chain: MASCDTGLLSDQRHHALMFPYPVQGHIQPFMRLSKLLATNYGFTISFFNSEENHRRLLADRDEPASQEDRAEDAEGKPLDFRMLFLPDVLPSSTEVEQMSAGTHIEKSHVLLSKTFLNTDPAALETLIRSQSPPITCLILDPLVTVIAPGLGEKLGITSLIFFPASAASLATAIRSGEVDGDAKQMTRIVGAPVLDVKEVNPFLSICGRGHSDFMARLFTQPFRKKLIKANDIILINTVEELEESTLKHLQEENKVCAIGPVLPPWGAFAVPTLWSQDYSCLDWLDKQPAASVLFVSFGSLATLSSTQLSDLALGLEASNQRILWVTRPDQIYGKAPDLPSDFLERIKDRILVFSWVPQLHVLCHTSVGGFLSHCGWNSTIESIAAGVPILAWPFFGDQMLNAKCVVEKWRIGLALTGAGGAMSKAVVETRVKDLMEGDLSKELRNRAQNLKHIVVKALSHGGSSSSNLQKLFGHL
- Km [1]: 17.5 ± 2.0 µM
- Vmax [1]: 0.0115 µmol/min/mg
- kcat [1]: 0.0133 ± 0.000167 s⁻¹
- kcat/Km [1]: 795 M⁻¹ s⁻¹
- Km [2]: 23.8 ± 2.8 µM
- Vmax [2]: 0.011 µmol/min/mg
- kcat [2]: 0.0133 ± 0.000333 s⁻¹
- kcat/Km [2]: 560 M⁻¹ s⁻¹

B2: ScCGT1 (Odontosoria chinensis; P164T) (protein)
chain: B1 chain with P164T
- Km [1]: 31.7 ± 2.9 µM
- Vmax [1]: 0.0399 µmol/min/mg
- kcat [1]: 0.0483 ± 0.001 s⁻¹
- kcat/Km [1]: 1520 M⁻¹ s⁻¹
- Km [2]: 29.8 ± 2.5 µM
- Vmax [2]: 0.0334 µmol/min/mg
- kcat [2]: 0.04 ± 0.000833 s⁻¹
- kcat/Km [2]: 1360 M⁻¹ s⁻¹
